Columns and labels:
fig4_yeast FIG4 = fig4_yeast FIG4 (UniProt P42837)
vac14_yeast VAC14 = vac14_yeast VAC14 (UniProt Q06708)
Sequence of UniProt Q06708 (Q06708 whole entry): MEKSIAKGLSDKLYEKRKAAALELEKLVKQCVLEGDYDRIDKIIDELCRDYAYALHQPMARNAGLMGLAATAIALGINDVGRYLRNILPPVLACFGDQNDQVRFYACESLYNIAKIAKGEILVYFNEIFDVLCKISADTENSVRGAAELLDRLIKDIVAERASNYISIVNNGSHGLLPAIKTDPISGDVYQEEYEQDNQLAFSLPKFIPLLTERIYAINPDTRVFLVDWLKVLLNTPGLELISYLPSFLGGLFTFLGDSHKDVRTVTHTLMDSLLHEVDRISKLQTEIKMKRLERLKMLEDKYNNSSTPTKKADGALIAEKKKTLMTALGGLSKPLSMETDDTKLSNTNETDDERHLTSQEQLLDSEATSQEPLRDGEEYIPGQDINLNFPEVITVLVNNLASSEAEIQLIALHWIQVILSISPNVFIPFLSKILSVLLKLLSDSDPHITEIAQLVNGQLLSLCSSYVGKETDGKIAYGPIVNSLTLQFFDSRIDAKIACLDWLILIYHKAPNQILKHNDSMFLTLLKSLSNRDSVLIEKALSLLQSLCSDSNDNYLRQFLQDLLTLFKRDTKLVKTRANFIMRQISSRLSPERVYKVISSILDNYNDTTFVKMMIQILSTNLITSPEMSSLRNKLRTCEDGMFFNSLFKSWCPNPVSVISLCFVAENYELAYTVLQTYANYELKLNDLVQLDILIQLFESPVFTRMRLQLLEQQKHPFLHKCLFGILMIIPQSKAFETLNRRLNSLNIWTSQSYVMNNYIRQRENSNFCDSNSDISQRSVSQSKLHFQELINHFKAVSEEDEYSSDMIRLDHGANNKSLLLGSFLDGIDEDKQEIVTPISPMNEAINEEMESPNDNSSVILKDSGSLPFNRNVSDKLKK

Sequence of UniProt P42837 (P42837 whole entry): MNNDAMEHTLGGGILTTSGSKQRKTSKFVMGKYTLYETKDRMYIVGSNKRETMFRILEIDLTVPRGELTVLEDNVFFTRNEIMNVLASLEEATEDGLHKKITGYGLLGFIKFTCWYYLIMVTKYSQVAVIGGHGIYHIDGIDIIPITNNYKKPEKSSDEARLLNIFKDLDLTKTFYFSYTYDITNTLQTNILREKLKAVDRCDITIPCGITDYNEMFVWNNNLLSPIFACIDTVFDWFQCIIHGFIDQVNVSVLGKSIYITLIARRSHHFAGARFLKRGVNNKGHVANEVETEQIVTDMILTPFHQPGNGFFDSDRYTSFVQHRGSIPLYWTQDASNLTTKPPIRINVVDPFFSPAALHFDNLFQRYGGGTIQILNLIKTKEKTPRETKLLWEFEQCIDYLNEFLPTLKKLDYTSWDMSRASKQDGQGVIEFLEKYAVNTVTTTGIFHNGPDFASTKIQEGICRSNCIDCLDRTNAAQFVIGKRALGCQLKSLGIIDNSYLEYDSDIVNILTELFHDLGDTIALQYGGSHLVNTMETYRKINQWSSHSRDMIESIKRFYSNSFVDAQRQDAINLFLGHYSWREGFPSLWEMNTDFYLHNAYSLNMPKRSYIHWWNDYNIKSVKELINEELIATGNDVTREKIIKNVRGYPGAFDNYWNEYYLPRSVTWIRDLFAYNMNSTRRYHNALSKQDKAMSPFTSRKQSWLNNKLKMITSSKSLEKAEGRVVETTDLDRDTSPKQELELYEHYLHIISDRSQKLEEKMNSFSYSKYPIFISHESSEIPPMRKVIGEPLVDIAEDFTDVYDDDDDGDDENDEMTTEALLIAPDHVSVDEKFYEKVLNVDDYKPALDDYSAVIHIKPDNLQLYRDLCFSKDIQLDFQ

Substance: 1-phosphatidylinositol 3-phosphate 5-kinase FAB1 (Saccharomyces cerevisiae), P34756 G864E
- effect of a mutation on the interaction (fig4_yeast FIG4): disrupting interaction
- effect of a mutation on the interaction (vac14_yeast VAC14): disrupting interaction
